Laboratory results reported in article doi:10.1101/2025.08.22.671821, “Cross-regulation of (p)ppGpp and c-di-GMP pathways controls a cell-cycle transition” (bioRxiv, 2025).

Molecular target: the molecule itself
Experiment: crystal structure; PleD 5 mg/mL with 0.5 µM c-di-GMP and 5 mM ppGpp or pppGpp; sitting-drop vapor diffusion at 19°C; space group P6(1)22, 4 molecules per asymmetric unit; 2.9 Å (ppGpp) and 3 Å (pppGpp)

B1: PleD diguanylate cyclase from Caulobacter crescentus (enzyme)
chain: MSARILVVDDIEANVRLLEAKLTAEYYEVSTAMDGPTALAMAARDLPDIILLDVMMPGMDGFTVCRKLKDDPTTRHIPVVLITALDGRGDRIQGLESGASDFLTKPIDDVMLFARVRSLTRFKLVIDELRQREASGRRMGVIAGAAARLDGLGGRVLIVDDNERQAQRVAAELGVEHRPVIESDPEKAKISAGGPVDLVIVNAAAKNFDGLRFTAALRSEERTRQLPVLAMVDPDDRGRMVKALEIGVNDILSRPIDPQELSARVKTQIQRKRYTDYLRNNLDHSLELAVTDQLTGLHNRRYMTGQLDSLVKRATLGGDPVSALLIDIDFFKKINDTFGHDIGDEVLREFALRLASNVRAIDLPCRYGGEEFVVIMPDTALADALRIAERIRMHVSGSPFTVAHGREMLNVTISIGVSATAGEGDTPEALLKRADEGVYQAKASGRNAVVGKAA
notes: PleD, response regulator and diguanylate cyclase of Caulobacter crescentus (receiver domain D1, adaptor domain D2, DGC domain); expressed from pET11b-pleD; In the crystals each monomer carries two c-di-GMP at the I-site, and one (p)ppGpp and a Mg2+ in the active site; also called PleDCC; source: E. coli BL21(DE3), purified (Ni-NTA, SEC)
binding result: binds
